# Results taken from publication PMC9834252 (Nature Communications, 2023).
# B1: HOIL-1 helix-RBR (WT) (domain or fragment, human, UniProt Q9BYM8 233-510, looked up)
# chain: DEEERARLAGEEEALRQYQQRKQQQQEGNYLQHVQLDQRSLVLNTEPAECPVCYSVLAPGEAVVLRECLHTFCRECLQGTIRNSQEAEVSCPFIDNTYSCSGKLLEREIKALLTPEDYQRFLDLGISIAENRSAFSYHCKTPDCKGWCFFEDDVNEFTCPVCFHVNCLLCKAIHEQMNCKEYQEDLALRAQNDVAARQTTEMLKVMLQQGEAMRCPQCQIVVQKKDGCDWIRCTVCHTEICWVTKGPRWGPGGPGDTSGGCRCRVNGIPCHPSCQNCH
# notes: HOIL-1, human, residues 233-510 (N-terminal helix and RBR module); also called WT HOIL-1; HOIL-1 233-510 (helix-RBR); source: E. coli BL21(DE3), purified (Ni-NTA, SEC)
# Target: T1, M1-linked di-Ub (UniProt P0CG48 1-76; P0CG48 1-76)
# T1 construct: ubiquitin, distal protomer (its C-terminus joined to M1 of the next); ubiquitin, proximal protomer (free C-terminus); also called M1 di-Ub; linear di-Ub; source: E. coli, purified (acid precipitation, cation exchange, SEC)
# Test: ITC; M1-linked di-Ub and HOIL-1 (WT or I358R), direct binding; who was titrated and the concentrations are not told; 25 °C, 10 mM HEPES pH 7.9, 100 mM NaCl
# Details: both partners purified
binder,measurement,value
B1,Kd,~50 µM
